Data on 3 molecules can be found in PMC2173631 (The Journal of Cell Biology, 2003).

For one data set, the target named is T1, DAGLβ (Mus musculus, UniProt Q91WC9).
T1 sequence (Q91WC9 1-669): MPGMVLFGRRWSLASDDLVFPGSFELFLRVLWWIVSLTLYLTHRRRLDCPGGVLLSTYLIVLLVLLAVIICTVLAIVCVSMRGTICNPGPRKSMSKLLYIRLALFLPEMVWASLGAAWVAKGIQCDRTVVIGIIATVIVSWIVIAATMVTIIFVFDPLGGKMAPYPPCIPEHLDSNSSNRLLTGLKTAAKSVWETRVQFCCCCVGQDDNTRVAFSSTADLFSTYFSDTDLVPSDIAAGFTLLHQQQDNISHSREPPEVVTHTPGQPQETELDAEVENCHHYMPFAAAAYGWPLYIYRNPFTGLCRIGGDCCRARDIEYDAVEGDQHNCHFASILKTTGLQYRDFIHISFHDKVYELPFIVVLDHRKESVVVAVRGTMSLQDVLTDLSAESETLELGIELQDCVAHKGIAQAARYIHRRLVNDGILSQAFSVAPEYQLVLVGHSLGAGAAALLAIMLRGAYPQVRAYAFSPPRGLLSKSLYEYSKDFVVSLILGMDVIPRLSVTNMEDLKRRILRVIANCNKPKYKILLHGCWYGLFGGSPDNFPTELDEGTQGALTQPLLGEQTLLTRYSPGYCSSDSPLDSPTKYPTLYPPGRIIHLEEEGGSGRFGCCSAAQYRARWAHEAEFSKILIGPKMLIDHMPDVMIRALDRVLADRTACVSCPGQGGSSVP
The data set is described as follows: radiolabeled DAG hydrolysis assay, homogenates of transfected COS cells. It is filed as biochemical.

Substrate in data set [1]: CCCCC/C=C\C/C=C\C/C=C\C/C=C\CCCC(=O)O[C@@H](CO)COC(=O)CCCCCCCCCCCCCCCCC
The data set is described as follows: cells, lysate or membranes.

Regarding `CCCCCCCCCCC[C@@H](C[C@@H]1OC(=O)[C@H]1CCCCCC)OC(=O)[C@H](CC(C)C)NC=O` [THL, tetrahydrolipstatin], at DAGLβ, the midpoint of inhibition, the IC50, lay at 100 nM.

B1: DAGLβ (Mus musculus) (protein)
chain: MPGMVLFGRRWSLASDDLVFPGSFELFLRVLWWIVSLTLYLTHRRRLDCPGGVLLSTYLIVLLVLLAVIICTVLAIVCVSMRGTICNPGPRKSMSKLLYIRLALFLPEMVWASLGAAWVAKGIQCDRTVVIGIIATVIVSWIVIAATMVTIIFVFDPLGGKMAPYPPCIPEHLDSNSSNRLLTGLKTAAKSVWETRVQFCCCCVGQDDNTRVAFSSTADLFSTYFSDTDLVPSDIAAGFTLLHQQQDNISHSREPPEVVTHTPGQPQETELDAEVENCHHYMPFAAAAYGWPLYIYRNPFTGLCRIGGDCCRARDIEYDAVEGDQHNCHFASILKTTGLQYRDFIHISFHDKVYELPFIVVLDHRKESVVVAVRGTMSLQDVLTDLSAESETLELGIELQDCVAHKGIAQAARYIHRRLVNDGILSQAFSVAPEYQLVLVGHSLGAGAAALLAIMLRGAYPQVRAYAFSPPRGLLSKSLYEYSKDFVVSLILGMDVIPRLSVTNMEDLKRRILRVIANCNKPKYKILLHGCWYGLFGGSPDNFPTELDEGTQGALTQPLLGEQTLLTRYSPGYCSSDSPLDSPTKYPTLYPPGRIIHLEEEGGSGRFGCCSAAQYRARWAHEAEFSKILIGPKMLIDHMPDVMIRALDRVLADRTACVSCPGQGGSSVP
With B1, in data set [1], the Km turned out to be 74.1 ± 4.9 µM.

B2: DAGLα (Homo sapiens) (protein)
chain: MPGIVVFRRRWSVGSDDLVLPAIFLFLLHTTWFVILSVVLFGLVYNPHEACSLNLVDHGRGYLGILLSCMIAEMAIIWLSMRGGILYTEPRDSMQYVLYVRLAILVIEFIYAIVGIVWLTQYYTSCNDLTAKNVTLGMVVCNWVVILSVCITVLCVFDPTGRTFVKLRATKRRQRNLRTYNLRHRLEEGQATSWSRRLKVFLCCTRTKDSQSDAYSEIAYLFAEFFRDLDIVPSDIIAGLVLLRQRQRAKRNAVLDEANNDILAFLSGMPVTRNTKYLDLKNSQEMLRYKEVCYYMLFALAAYGWPMYLMRKPACGLCQLARSCSCCLCPARPRFAPGVTIEEDNCCGCNAIAIRRHFLDENMTAVDIVYTSCHDAVYETPFYVAVDHDKKKVVISIRGTLSPKDALTDLTGDAERLPVEGHHGTWLGHKGMVLSAEYIKKKLEQEMVLSQAFGRDLGRGTKHYGLIVVGHSLGAGTAAILSFLLRPQYPTLKCFAYSPPGGLLSEDAMEYSKEFVTAVVLGKDLVPRIGLSQLEGFRRQLLDVLQRSTKPKWRIIVGATKCIPKSELPEEVEVTTLASTRLWTHPSDLTIALSASTPLYPPGRIIHVVHNHPAEQCCCCEQEEPTYFAIWGDNKAFNEVIISPAMLHEHLPYVVMEGLNKVLENYNKGKTALLSAAKVMVSPTEVDLTPELIFQQQPLPTGPPMPTGLALELPTADHRNSSVRSKSQSEMSLEGFSEGRLLSPVVAAAARQDPVELLLLSTQERLAAELQARRAPLATMESLSDTESLYSFDSRRSSGFRSIRGSPSLHAVLERDEGHLFYIDPAIPEENPSLSSRTELLAADSLSKHSQDTQPLEAALGSGGVTPERPPSAAANDEEEEVGGGGGGPASRGELALHNGRLGDSPSPQVLEFAEFIDSLFNLDSKSSSFQDLYCMVVPESPTSDYAEGPKSPSQQEILLRAQFEPNLVPKPPRLFAGSADPSSGISLSPSFPLSSSGELMDLTPTGLSSQECLAADKIRTSTPTGHGASPAKQDELVISAR
Turning to B2, the Michaelis constant (Km) in data set [1] was 154.7 ± 19.1 µM.
